According to patent US9266952B2, “Antibodies against ROR1 and uses thereof” (KANCERA AB, priority 2010, dated 2016):

System: primary patient CLL cells
Assay: Primary patient CLL cells i.v. in irradiated NOD.SCID mice, spleen
Assay type: in vivo
Conditions: 10 mg/kg i.p. from day 5-7 after transfer, sacrificed 3-7 days later, versus isotype control
Experimental: Primary patient CLL cells are intravenously injected into immuno-deficient NOD. SCID mice. The CLL cells home to the spleen and there form proliferating clusters, very similar to human disease. After allowing to settle in the spleen for 5-7 days, the mice were treated with 10 mg/kg anti-ROR1 antibodies every third day and terminated after (A) 7 days, n=7 mice/group; (B) 7 days, n=9-10 mice/group; (C) 4 days, n=8 mice/group; (D) 3 days, n=5 mice/group. At termination the number of CLL cells is quantified in spleen using FACS staining of human CD45, CD19 and CD20. Each figure represents cells from individual CLL patients.
NOD.SCID mice received whole-body irradiation of 1 Gy 1 day prior to injection of primary patient cells.
PBMCs were isolated from peripheral blood of four CLL patients using the Ficoll Hypaque technique. Thereafter, 100×10^6 cells was injected i.v into irradiated NOD.SCID mice. The mice were treated i.p with 10 mg/kg of the ROR1 specific mAb 009-G03, or irrelevant negative control mAb at day 5-7 after transfer of cells to mice and sacrificed 3-7 days later. […]
Spleens were dissected out, minced, and lysed for red blood cells. The cell suspension were stained with fluorochrome conjugated mAb's recognizing human CD45, CD19 or CD20 and CLL cells were quantified as being either CD45^+CD19^+ or CD45^+CD20^+. […]

B1: 010-D06: ROR1 specific mAb, VH SEQ ID NO: 27, VL SEQ ID NO: 28 (FIG. 15) (antibody, listed as Mus musculus, V domains shown)
VH: EVQLLESGGGLVQPGGSLRLSCAASGFTFRDYGMHWVRQAPGKGLEWVSAISGSGGSTFYADSVKGRFTISRDNSKNTLYLQMNSLRAEDTAVYYCARGRSAGSMGYFDYWGQGTLVTVSS
VL: QSVLTQPPSASGTPGQRVTISCTGSSSNIGAGYDVHWYQQLPGTAPKLLIYGNSNRPSGVPDRFSGSKSGTSASLAISGLRSEDEADYYCAAWDDSLNGWVFGGGTKLTVLG
number of grafted CLL cells in the spleen: significantly reduces the number of grafted CLL cells in the spleen
